PMC3483115 (The Journal of General Physiology, 2012)

Biological target: calmodulin (CaM), wild type (UniProt P0DP23 1-149)
Experiment: SEC

B1: TRPV1-CT35 (TRPV1 C-terminal residues 767–801) (peptide)
chain: EGVKRTLSFSLRSGRVSGRNWKNFALVPLLRDAST
binding result: binds
